This note sets out measurements from patent publication US20080124340A1.

The target in experiment [1] is cynomolgus monkey EpoR (cynoEpoR) (cynomolgus monkey). The experiment can be described thus: SPR, Biacore T100; scFv-Fc captured on CM5 chip, EpoR as analyte; fit to steady-state model (off-rate too rapid); clone #34, cynomolgus EpoR, steady-state fit.
In experiment [2] the target is T1, soluble human erythropoietin receptor protein (huEpoR) (human) (UniProt P19235).
T1 sequence (looked up): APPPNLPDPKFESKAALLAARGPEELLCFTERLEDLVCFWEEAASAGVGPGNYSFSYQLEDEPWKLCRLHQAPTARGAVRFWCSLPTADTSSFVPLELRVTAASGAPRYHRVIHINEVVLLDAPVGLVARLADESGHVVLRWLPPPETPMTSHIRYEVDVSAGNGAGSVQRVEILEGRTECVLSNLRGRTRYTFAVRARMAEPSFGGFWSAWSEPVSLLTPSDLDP
As to the kind of experiment: SPR, Biacore T100; scFv-Fc captured by anti-human IgG Fc on CM5 chip, EpoR as analyte.

Experiment [3] addresses T2, human erythropoietin receptor (huEpoR), cell surface expressed (human) (UniProt P19235).
T2 sequence (looked up): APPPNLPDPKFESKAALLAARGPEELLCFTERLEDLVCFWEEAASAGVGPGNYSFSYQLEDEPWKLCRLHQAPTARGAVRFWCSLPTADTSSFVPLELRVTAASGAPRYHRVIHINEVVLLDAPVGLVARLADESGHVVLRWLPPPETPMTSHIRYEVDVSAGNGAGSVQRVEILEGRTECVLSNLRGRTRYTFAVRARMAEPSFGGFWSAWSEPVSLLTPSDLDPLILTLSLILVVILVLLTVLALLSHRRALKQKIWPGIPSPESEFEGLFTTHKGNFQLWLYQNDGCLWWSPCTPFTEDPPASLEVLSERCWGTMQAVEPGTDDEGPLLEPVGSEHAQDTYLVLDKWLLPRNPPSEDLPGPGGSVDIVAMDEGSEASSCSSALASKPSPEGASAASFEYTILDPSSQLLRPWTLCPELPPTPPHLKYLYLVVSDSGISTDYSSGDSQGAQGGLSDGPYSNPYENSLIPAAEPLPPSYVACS
The experiment can be described thus: cell-based or functional assay.

B1: clone 34 scFv-Fc protein (Fc fusion, part only; not given: Linker and IgG1 Fc, not shown: another chain or arm of the molecule; a dimerising Fc or GST; small tags and cut ends)
VH: QVQLQQSGAEVKKPGASVKVSCKASGYTFSGYYMHWVRQAPGQGLEWMGWINPNSGSTNYAQKFLGRVTMTRDTSISTAYMELSSLRSDDTAVYYCARGHSGDYFDYWGQGTLVTVSA
VL: EIVLTQSPSSLSASVGDRVTITCRASQSVSSWLAWYQQRPGQAPKLLIYAARLRGGGPSRFSGSGSGTEFTLTISSLQPEDFATYFCQQSYSTPISFGGGTKLEIK
In the case of B1, the Kd in experiment [1] came to 5810 nM. For the same molecule, in experiment [2], the Kd stood at 378 nM, the koff is 0.203 s⁻¹ and the on-rate (kon) was determined as 536000 M⁻¹ s⁻¹. The molecule also yielded an Average EC50, UT-7-luciferase assay in experiment [3] of 0.11 nM.
